In general, Kd refers to a measure of binding affinity in units of concentration. By stoichiometry N is commonly meant the number of molecules, sites or subunits per partner or assembly.

The test system of data set [1] is ctMex67 deltaN (with Mtr2);ctMtr2 (Chaetomium thermophilum;Chaetomium thermophilum). Nature of the data set: fluorescence anisotropy. The following applies: 20 mM Tris-HCl pH 8.0, 50 mM NaCl, 10 nM DY-547-labelled RNA, serially diluted protein, temperature not stated. Background: Fluorescence polarisation rises when a labelled molecule tumbles more slowly, as on binding a larger partner.

The test system of data set [2] is ctMex67 RRM-LRR (NTF2L-Mtr2 deletion) (Chaetomium thermophilum). Nature of the data set: fluorescence anisotropy. The following applies: 20 mM Tris-HCl pH 8.0, 50 mM NaCl, 10 nM DY-547-labelled RNA, serially diluted protein; temperature not stated.
Data set [3] deals with ctMex67 LRR-NTF2L (RRM deletion);ctMtr2 (Chaetomium thermophilum;Chaetomium thermophilum). Nature of the data set: fluorescence anisotropy. The following applies: 20 mM Tris-HCl pH 8.0, 50 mM NaCl, 10 nM DY-547-labelled RNA, serially diluted protein; temperature not stated.
In data set [4] the test system is ctMex67 deltaUBA (deltaN deltaUBA);ctMtr2 (Chaetomium thermophilum;Chaetomium thermophilum). Nature of the data set: fluorescence anisotropy. The following applies: 20 mM Tris-HCl pH 8.0, 50 mM NaCl, 10 nM DY-547-labelled RNA, serially diluted protein; temperature not stated.
For data set [5], the target named is Chaetomium thermophilum Mex67 LRR-NTF2L (ctMex67^LRR-NTF2L; residues 180-556) (Chaetomium thermophilum). Nature of the data set: SEC-MALS; ctMex67^LRR-NTF2L alone; single peak; dimer. In general terms: In gel filtration, larger molecules generally elute earlier.

With AAAAAAAAAAAAAAA [polyA15], the Kd in data set [1] stood at 350 nM; in data set [2], 5500 nM; in data set [3], 6800 nM; in data set [4], 370 nM.

In data set [1], CCCCCCCCCCCCCCC [polyC15] showed a Kd of 6000 nM. In data set [5], “Chaetomium thermophilum Mex67 LRR-NTF2L (ctMex67^LRR-NTF2L; residues 180-556) (domain or fragment)” came in with a stoichiometry N of 2. In the case of GGGGGGGGGGGGGGG [polyG15], in data set [1], the dissociation constant Kd was found to be 310 nM. UUUUUUUUUUUUUUU [polyU15] gave a Kd in data set [1] (printed '930 and 6.0 µM, respectively', 930 read as nM) of 930 nM.

The values are drawn from article PMC4498709.
